Measured values as given in paper doi:10.1101/2021.12.01.470822.

Target: ABD1 of PLS2 (human) (UniProt P13796)
Test: fluorescence polarisation

ABD1 of PLS2 (human), sequence (P13796 98-375): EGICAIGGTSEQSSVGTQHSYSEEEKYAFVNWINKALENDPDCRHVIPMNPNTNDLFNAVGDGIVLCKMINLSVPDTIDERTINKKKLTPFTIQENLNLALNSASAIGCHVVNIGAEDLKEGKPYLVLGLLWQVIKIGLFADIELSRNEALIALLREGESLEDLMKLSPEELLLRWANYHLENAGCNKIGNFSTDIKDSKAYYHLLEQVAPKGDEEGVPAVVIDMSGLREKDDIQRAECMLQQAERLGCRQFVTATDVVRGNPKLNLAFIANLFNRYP

Substance: ABD2 of PLS2 with S406E (from UniProt P13796 1-627) (domain or fragment)
- Kd: 2000 nM
